Assay results as given in US7387779B2, “Anti-angiogenic proteins and fragments and methods of use thereof” (Beth Israel Deaconess Medical Center, priority 1998, dated 2008).

Legend:
[1] = system: A-498 (renal carcinoma) cells; experiment: Proliferation of control cells, 3H-thymidine incorporation; assay type: cell-based; conditions: endostatin 0.1-10 μg/ml
Protocol: C-PAE cells were grown to confluence in DMEM with 10% fetal calf serum (FCS) and kept contact inhibited for 48 hours. Control cells were 786-O (renal carcinoma) cells, PC-3 cells, HPEC cells, and A-498 (renal carcinoma) cells. Cells were harvested with trypsinization (Life Technologies/Gibco BRL, Gaithersburg, Md., USA) at 37° C. for five minutes. A suspension of 12,500 cells in DMEM with 1% FCS was added to each well of a 24-well plate coated with 10 μg/ml fibronectin. The cells were incubated for 24 hours at 37° C. with 5% CO2 and 95% humidity. Medium was removed and replaced with DMEM containing 0.5% FCS and 3 ng/ml bFGF (R&D Systems, Minneapolis, Minn., USA). Unstimulated controls received no bFGF. Cells were treated with concentrations of Arresten or endostatin ranging from 0.01 to 50 μg/ml. All wells received 1 μCurie of ^3H-thymidine at the time of treatment. After 24 hours, medium was removed and the wells were washed with PBS. Cells were extracted with 1N NaOH and added to a scintillation vial containing 4 ml of ScintiVerse II (Fisher Scientific, Pittsburgh, Pa., USA) solution. Thymidine incorporation was measured using a scintillation counter. The results are shown in FIGS. 3A and 3B, which are a pair of graphs showing incorporation of ^3H-thymidine into C-PAE cells treated with varying amounts of Arresten (FIG. 3A) or endostatin (FIG. 3B). […]

HEK 293 cells [2] = experiment: as above; assay type: cell-based, human; conditions: Canstatin doses up to 40 mg/ml
Protocol: Bovine calf […] endothelial (C-PAE) cells were grown to confluence in DMEM with 10% fetal calf serum (FCS) and kept contact inhibited for 48 hours. Cells were harvested by trypsinization (Life Technologies/Gibco BRL, Gaithersberg, Md., USA) at 37° C. for 5 minutes. A suspension of 12,500 cells in DMEM with 0.5% FCS was added to each well of a 24-well plate coated with 10 μg/ml fibronectin. The cells were incubated for 24 hours at 37° C. C. with 5% CO2 and 95% humidity. Medium was removed, and replaced with DMEM containing 0.5% FCS (unstimulated) or 10% FCS (stimulated and treated cells). 786-O, PC-3 and HEK 293 cells served as controls and were also grown to confluency, trypsinized and plated in the same manner. Cells were treated with concentrations of Canstatin or endostatin ranging from 0.025 to 40 mg/ml in triplicate. In thymidine incorporation experiments, all wells received […] of ^3H-thymidine at the time of treatment. After 24 hours, medium was removed and the wells were washed 3 times with PBS. Radioactivity was extracted with 1N NaOH and added to a scintillation vial containing 4 ml of ScintiVerse II (Fisher Scientific, Pittsburgh, Pa., USA) solution. Thymidine incorporation was measured using a scintillation counter.

786-O cells = experiment: Annexin V-FITC apoptosis assay; assay type: cell-based, human; conditions: 15 μg/ml
Protocol: (§1) Annexin V-FITC Labeling. In order to establish apoptosis as the potential mode of action for Canstatin, Annexin V-FITC was used to label externalized phosphatidylserine (PS), to assess apoptotic cells. 0.5×10^6 C-PAE cells, PC-3, 786-O and HEK 293 cells were added to each well of a 6 well tissue culture plate in 10% FBS supplemented DMEM (BioWhittaker, Walkersville, Md., USA) overnight. The next day, fresh medium was added to all wells together with 40 ng/ml TNF-α (positive control) or 15 μg/ml Canstatin. Control cells received an equal volume of PBS. After 24 hours of treatment, medium containing detached cells was collected and attached cells were trypsinized and combined with detached cells and centrifuged at 3,000×g. Cells were then washed and phosphatidyl-serine externalization (an early apoptotic indicator) was measured by labeling with FITC-labeled annexin V (Clontech, Palo Alto, Calif., USA) according to the manufacturer's instructions. Annexin V-FITC-labeled cells were counted using a FAC Star Plus flow cytometer (Becton-Dickenson, Waltham, Mass., USA). For each treatment 15,000 cells were counted and stored in listmode.

HEK 293 cells [3] = experiment: Annexin V-FITC apoptosis assay; assay type: cell-based, human; conditions: 15 μg/ml
Protocol: as §1

ERK = ERK activation (phospho-ERK western blot) in HUVEC; assay type: cell-based, human; conditions: 20 μg/ml
Protocol: In order to further understand the molecular mechanisms involved in Canstatin's anti-proliferative and anti-migratory activities, the effect of Canstatin on ERK (Extracellular signal-Regulated Kinase) activation induced by 20% fetal bovine serum and endothelial mitogens was assessed. HUVEC cells were cultured overnight in McCoy's medium supplemented with 20% FBS, 1% penicillin/streptomycin, 100 μg/ml heparin and 50 μg/ml endothelial mitogen (Biomedical Technologies, Inc., Cambridge, Mass., USA). The following day, cells were washed and grown for 4 hours in low serum medium (McCoy's medium supplemented with 1% penicillin/streptomycin, 100 μg/ml heparin and 5% FBS). After 4 hours, the medium was replaced with fresh low serum medium with or without 20 μg/ml Canstatin. One hour later the serum concentration was adjusted to 20% and endothelial mitogen was added to a final concentration of 50 μg/ml. At 0, 5, 10, 25, and 40 minutes, the cells were washed with PBS and lysed with passive lysis mix (Promega, Madison, Wis., USA) plus leupeptin, PMSF, NaF, Na3VO4, β-glycerophosphate, and sodium pyrophosphate. Lysates were quantified for protein concentration and separated on 12% SDS-PAGE gels. Western blots of phospho-ERK were made for serum-treated and serum+Canstatin-treated HUVECs using anti-phospho-ERK antibodies (New England Biolabs, Beverly, Mass., USA). […]

DU-145 cells = experiment: MTT cell viability assay; assay type: cell-based; conditions: 0-50 μg/ml
Protocol: Cell viability was measured by MTT assay, as described above.
The effects of Tumstatin-44-131 and Tum-5-125-C-A on cell viability of C-PAE cells were not seen in control PC-3 and DU-145 cells, as shown in FIGS. 52C and 52D. […] The activity of Tumstatin-44-131 is therefore specific to endothelial cells.

B1: endostatin: tumor associated angiogenesis inhibitor used as comparator (protein, UniProt P39060 1572-1754, looked up)
Endostatin: HSHRDFQPVLHLVALNSPLSGGMRGIRGADFQCFQQARAVGLAGTFRAFLSSRLQDLYSIVRRADRAAVPIVNLKDELLFPSWEALFSGSEGPLKPGARIFSFDGKDVLRHPTWPQKSVWHGSDPNGRRLTESYCETWRTEAPSATGQASSLLGGRLLGQSAASCHHAYIVLCIENSFMTASK
modifications: Endostatin
In the case of B1, the effect on proliferation [1] is reported as “did not inhibit”.

B2: Canstatin: NC1 domain of the α2 chain of Type IV collagen (SEQ ID NO:6) (protein, listed as Homo sapiens)
chain: VSIGYLLVKHSQTDQEPMCPVGMNKLWSGYSLLYFEGQEKAHNQDLGLAGSCLARFSTMPFLYCNPGDVCYYASRNDKSYWLSTTAPLPMMPVAEDEIKPYISRCSVCEAPAIAIAVHSQDVSIPHCPAGWRSLWIGYSFLMHTAAGDEGGGQSLVSPGSCLEDFRATPFIECNGGRGTCHYYANKYSFWLTTIPEQSFQGSPSADTLKAGLIRTHISRCQVCMKNL
B2 was tested, and the effect on proliferation (HEK 293 cells [2]) was “No significant effect”, the “apoptosis of 786-O cells” value (786-O cells) was “no significant effect” and the “apoptosis of HEK 293 cells” value (HEK 293 cells [3]) was “no significant effect”. For the same molecule, the “effect on ERK activation” value (ERK) was “did not alter early activation of ERK”.

B3: Tumstatin-44-131: residues 44 to 131 of full-length Tumstatin (SEQ ID NO:33) (protein)
chain: FSFLFVQGNQRAHGQDLGTLGSCLQRFTTMPFLFCNVNDVCNFASRNDYSYWLSTPALMPMNMAPITGRALEPYISRCTVCEGPAIAI
modifications: Tumstatin-45-132 (amino acids 45-132 of SEQ ID NO10)
With B3 the “effect on viability of DU-145 cells” value (DU-145 cells) was “not seen”.
